In experiment [1] the target is T1, Histidine-tagged recombinant human FcγRI (CD64) (human, UniProt P12314 16-288).
T1 construct: bought; also called Sino Biological Cat. No. 12056-H08H
Kind of experiment: SPR, culture supernatant, captured His-FcγRI.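 Further: biacore T200 SPR at 25 °C, anti-His capture, supernatants of HEK293 cells expressing IgG1 Fc variants injected 1 min, reference-subtracted response read 55 s after injection start.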

Experiment [2] addresses T2, human FcγRIIA (R131, Sino Biological Cat. No. 10374-H08H) (human, UniProt P12318 34-218).
T2 construct: bought; also called human FcγRIIa R131 allele; FcγRII allele R131
T2 sequence (looked up): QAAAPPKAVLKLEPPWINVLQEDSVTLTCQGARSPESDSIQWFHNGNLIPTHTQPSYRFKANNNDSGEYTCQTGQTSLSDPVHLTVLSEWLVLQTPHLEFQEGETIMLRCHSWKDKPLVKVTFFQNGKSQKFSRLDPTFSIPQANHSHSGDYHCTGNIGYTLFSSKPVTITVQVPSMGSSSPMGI
Kind of experiment: SPR, captured His-receptor.

In experiment [3] the target is T3, human FcγRIIIB (NA2 allotype, Sino Biological Cat. No. 11046-H08H) (human, UniProt O75015 17-200).
T3 construct: bought; also called human FcγRIIIb NA2 allele
The experiment can be described thus: SPR, captured His-receptor.

Experiment [4] concerns the target T1, Histidine-tagged recombinant human …. Kind of experiment: SPR, captured His-receptor.
Experiment [5] deals with T4, Histidine-tagged recombinant human FcγRI (CD64) (human, UniProt P12314 16-288, limits assumed).
T4 construct: bought
Kind of experiment: SPR, His-FcγRI captured; Expt 3.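 Further: biacore T200 SPR at 25 °C, Fc-variant antibodies at 100 µg/mL flowed 1 min over anti-His-captured FcγRI, signal taken just before injection end minus a buffer blank cycle; antibody analyte injected at 100 µg/mL for 1 min.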

In experiment [6] the target is T4, Histidine-tagged recombinant human …. Kind of experiment: SPR, His-FcγRI captured; Expt 2.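 Further: biacore T200 SPR at 25 °C, Fc-variant antibodies at 100 µg/mL flowed 1 min over anti-His-captured receptor, signal read near injection end minus third buffer blank; antibody analyte injected at 100 µg/mL for 1 min.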
For experiment [7] the target is unchanged. Kind of experiment: SPR, His-FcγRI captured; Expt 1.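 Further: SPR at 25 °C on anti-His antibody chip capturing FcγRI, Fc-variant antibodies injected at 100 µg/mL for 1 min, signal near end of injection minus buffer blank.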
For experiment [8] the target is unchanged. The experiment can be described thus: SPR, His-FcγRI captured; mean.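 Further: biacore T200 SPR at 25 °C, anti-His surface capturing FcγRI, Fc-variant antibodies injected at 100 µg/mL for 1 min, signal near injection end minus third buffer blank, three repeats.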
For another experiment, the target named is T5, human FcγRIIIA (F158) (human, UniProt P08637 17-208).
T5 construct: bought; F158 allele
Kind of experiment: SPR, FcγRIIIA captured. Further: test concentration or dose not given here.

Changes are numbered by the printed parent chain. Names may count otherwise.

T5 sequence (P08637 17-208 limits assumed): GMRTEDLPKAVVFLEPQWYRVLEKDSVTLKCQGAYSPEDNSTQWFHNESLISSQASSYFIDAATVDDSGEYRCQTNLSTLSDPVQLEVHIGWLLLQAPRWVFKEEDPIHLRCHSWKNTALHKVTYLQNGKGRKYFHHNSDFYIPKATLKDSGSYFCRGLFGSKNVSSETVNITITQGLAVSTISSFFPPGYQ

B1: anti-CD20 human IgG1 L234Q/L235S/G236R (antibody)
heavy: QVQLQQPGAELVKPGASVKMSCKASGYTFTSYNMHWVKQTPGRGLEWIGAIYPGNGDTSYNQKFKGKATLTADKSSSTAYMQLSSLTSEDSAVYYCARSTYYGGDWYFNVWGAGTTVTVSSASTKGPSVFPLAPSSKSTSGGTAALGCLVKDYFPEPVTVSWNSGALTSGVHTFPAVLQSSGLYSLSSVVTVPSSSLGTQTYICNVNHKPSNTKVDKKVEPKSCDKTHTCPPCPAPEQSRGPSVFLFPPKPKDTLMISRTPEVTCVVVDVSHEDPEVKFNWYVDGVEVHNAKTKPREEQYNSTYRVVSVLTVLHQDWLNGKEYKCKVSNKALPAPIEKTISKAKGQPREPQVYTLPPSRDELTKNQVSLTCLVKGFYPSDIAVEWESNGQPENNYKTTPPVLDSDGSFFLYSKLTVDKSRWQQGNVFSCSVMHEALHNHYTQKSLSLSPGK
light: QIVLSQSPAILSASPGEKVTMTCRASSSVSYIHWFQQKPGSSPKPWIYATSNLASGVPVRFSGSGSGTSYSLTISRVEAEDAATYYCQQWTSNPPTFGGGTKLEIKRTVAAPSVFIFPPSDEQLKSGTASVVCLLNNFYPREAKVQWKVDNALQSGNSQESVTEQDSKDSTYSLSSTLTLSKADYEKHKVYACEVTHQGLSSPVTKSFNRGEC
notes: also called 10.77; copies: 2 + 2
B1: the Mean binding response in [1] was 11.9 RU. Further, the binding result in experiment [2] and in [3] was “no binding (tested: 100 µg/mL)” in each case.

B2: anti-CD20 human IgG2 L234Q/L235S (antibody)
heavy: QVQLQQPGAELVKPGASVKMSCKASGYTFTSYNMHWVKQTPGRGLEWIGAIYPGNGDTSYNQKFKGKATLTADKSSSTAYMQLSSLTSEDSAVYYCARSTYYGGDWYFNVWGAGTTVTVSSASTKGPSVFPLAPCSRSTSESTAALGCLVKDYFPEPVTVSWNSGALTSGVHTFPAVLQSSGLYSLSSVVTVPSSNFGTQTYTCNVDHKPSNTKVDKTVERKCCVECPPCPAPPQSGPSVFLFPPKPKDTLMISRTPEVTCVVVDVSHEDPEVQFNWYVDGVEVHNAKTKPREEQFNSTFRVVSVLTVVHQDWLNGKEYKCKVSNKGLPAPIEKTISKTKGQPREPQVYTLPPSREEMTKNQVSLTCLVKGFYPSDIAVEWESNGQPENNYKTTPPMLDSDGSFFLYSKLTVDKSRWQQGNVFSCSVMHEALHNHYTQKSLSLSPGK
light: B1 light
notes: also called 11.144; copies: 2 + 2
In the case of B2, the binding result in [2] is “no binding (tested: 100 µg/mL)”; in experiment [3], “no binding (tested: 100 µg/mL)”; in experiment [4] it was “binds”.

B3: anti-CD20 human IgG4 L234Q/L235S/G236R (with S228P) (antibody)
heavy: QVQLQQPGAELVKPGASVKMSCKASGYTFTSYNMHWVKQTPGRGLEWIGAIYPGNGDTSYNQKFKGKATLTADKSSSTAYMQLSSLTSEDSAVYYCARSTYYGGDWYFNVWGAGTTVTVSSASTKGPSVFPLAPCSRSTSESTAALGCLVKDYFPEPVTVSWNSGALTSGVHTFPAVLQSSGLYSLSSVVTVPSSSLGTKTYTCNVDHKPSNTKVDKRVESKYGPPCPPCPAPEQSRGPSVFLFPPKPKDTLMISRTPEVTCVVVDVSQEDPEVQFNWYVDGVEVHNAKTKPREEQFNSTYRVVSVLTVLHQDWLNGKEYKCKVSNKGLPSSIEKTISKAKGQPREPQVYTLPPSQEEMTKNQVSLTCLVKGFYPSDIAVEWESNGQPENNYKTTPPVLDSDGSFFLYSRLTVDKSRWQEGNVFSCSVMHEALHNHYTQKSLSLSLGK
light: B1 light
notes: copies: 2 + 2
Turning to B3, the binding result in experiment [2], in [3] and in experiment [4] was “no binding (tested: 100 µg/mL)” throughout.

B4: anti-CD20 human IgG1 L234Q/L235S/G236R/T250Q/M428L (antibody)
heavy: B1 heavy with T254Q, M432L
light: B1 light
notes: also called 10.146; copies: 2 + 2
As to B4, the binding result in experiment [2], in experiment [3] and in experiment [4] was “no binding (tested: 100 µg/mL)” each time.

B5: anti-CD20 human IgG1 L234T/L235S/G236R (antibody)
heavy: B1 heavy with Q238T
light: B1 light
notes: also called 2-62
With B5, the “Corrected response (RU)” value in experiment [5] turned out to be 2.5 RU; in experiment [6] it was 0.9 RU; in experiment [7], 0.8 RU; in the experiment with human FcγRIIIA (F158), 2.5 RU. In experiment [8], the “Corrected response (RU), Mean” value came out at 1.4 RU.

B6: anti-CD20 human IgG1 L234A/L235A/P329G (LALAPG reference) (antibody)
heavy: not shown
light: B1 light
notes: also called 2-66; copies: 2 + 2
As to B6, the binding result in [2] and in [3] was “no binding (tested: 100 µg/mL)” in each case.

B7: anti-CD20 human IgG1 L234Q/L235S/G236R/M252Y/S254T/T256E (antibody)
heavy: B1 heavy with M256Y, S258T, T260E
light: B1 light
notes: also called 10.145; copies: 2 + 2
On to B7, for which the binding result in [2], in experiment [3] and in experiment [4] was “no binding (tested: 100 µg/mL)” each time.

B8: anti-CD20 human IgG1 L234S/L235V/G236R (antibody)
heavy: B1 heavy with Q238S, S239V
light: B1 light
notes: also called 2-53; copies: 2 + 2
Turning to B8, the binding result in experiment [2], in experiment [3] and in experiment [4] was “no binding (tested: 100 µg/mL)” throughout.

B9: anti-CD20 rabbit IgG L234Q/L235S/G236R (antibody)
heavy: QVQLQQPGAELVKPGASVKMSCKASGYTFTSYNMHWVKQTPGRGLEWIGAIYPGNGDTSYNQKFKGKATLTADKSSSTAYMQLSSLTSEDSAVYYCARSTYYGGDWYFNVWGAGTTVTVSSGQPKAPSVFPLAPCCGDTPSSTVTLGCLVKGYLPEPVTVTWNSGTLTNGVRTFPSVRQSSGLYSLSSVVSVTSSSQPVTCNVAHPATNTKVDKTVAPSTCSKPTCPPPEQSRGPSVFIFPPKPKDTLMISRTPEVTCVVVDVSEDDPEVQFTWYINNEQVRTARPPLREQQFNSTIRVVSTLPIAHEDWLRGKEFKCKVHNKALPAPIEKTISKARGQPLEPKVYTMGPPREELSSRSVSLTCMINGFYPSDISVEWEKNGKAEDNYKTTPAVLDSDGSYFLYSKLSVPTSEWQRGDVFTCSVMHEALHNHYTQKSISRSPGK
light: QIVLSQSPAILSASPGEKVTMTCRASSSVSYIHWFQQKPGSSPKPWIYATSNLASGVPVRFSGSGSGTSYSLTISRVEAEDAATYYCQQWTSNPPTFGGGTKLEIKRDPVAPSVLLFPPSKEELTTGTATIVCVANKFYPSDITVTWKVDGTTQQSGIENSKTPQSPEDNTYSLSSTLSLTSAQYNSHSVYTCEVVQGSASPIVQSFNRGDC
notes: also called 23.77
Turning to B9, the binding result in experiment [2], in experiment [3] and in experiment [4] was “no binding (tested: 100 µg/mL)” each time.

B10: anti-CD20 mouse IgG2a L234Q/L235S/G236R (antibody)
heavy: QVQLQQPGAELVKPGASVKMSCKASGYTFTSYNMHWVKQTPGRGLEWIGAIYPGNGDTSYNQKFKGKATLTADKSSSTAYMQLSSLTSEDSAVYYCARSTYYGGDWYFNVWGAGTTVTVSSAKTTAPSVYPLAPVCGDTTGSSVTLGCLVKGYFPEPVTLTWNSGSLSSGVHTFPAVLQSDLYTLSSSVTVTSSTWPSQSITCNVAHPASSTKVDKKIEPRGPTIKPCPPCKCPAPNQSRGPSVFIFPPKIKDVLMISLSPIVTCVVVDVSEDDPDVQISWFVNNVEVHTAQTQTHREDYNSTLRVVSALPIQHQDWMSGKEFKCKVNNKDLPAPIERTISKPKGSVRAPQVYVLPPPEEEMTKKQVTLTCMVTDFMPEDIYVEWTNNGKTELNYKNTEPVLDSDGSYFMYSKLRVEKKNWVERNSYSCSVVHEGLHNHHTTKSFSRTPGK
light: QIVLSQSPAILSASPGEKVTMTCRASSSVSYIHWFQQKPGSSPKPWIYATSNLASGVPVRFSGSGSGTSYSLTISRVEAEDAATYYCQQWTSNPPTFGGGTKLEIKRADAAPTVSIFPPSSEQLTSGGASVVCFLNNFYPKDINVKWKIDGSERQNGVLNSWTDQDSKDSTYSMSSTLTLTKDEYERHNSYTCEATHKTSTSPIVKSFNRNEC
notes: copies: 2 + 2
Consider B10, for which the binding result in experiment [2], in experiment [3] and in experiment [4] was “no binding (tested: 100 µg/mL)” each time.
